Article PMC2148126
Like-named read-outs stand apart in the source and are kept apart here.

Columns and labels:
[1] = target: Alf1p-myc (S. cerevisiae) (UniProt P53904); experiment: co-IP
[2] = target: Alf1p-myc (S. cerevisiae) (UniProt P53904); experiment: co-IP; remark: listed apart in the source

Chain of UniProt P53904 (P53904 whole entry): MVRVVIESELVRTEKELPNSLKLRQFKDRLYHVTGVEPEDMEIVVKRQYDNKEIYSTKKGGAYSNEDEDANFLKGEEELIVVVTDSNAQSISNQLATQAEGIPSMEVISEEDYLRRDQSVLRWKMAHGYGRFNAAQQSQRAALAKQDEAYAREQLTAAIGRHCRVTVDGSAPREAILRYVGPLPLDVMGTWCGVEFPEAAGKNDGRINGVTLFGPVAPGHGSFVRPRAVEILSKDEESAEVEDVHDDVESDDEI

ratio of α-tubulin to β-tubulin precipitated [1]: 2 fold
ratio of α-tubulin to β-tubulin precipitated [2]: 20 fold
Substance: α-tubulin, endogenous in yeast extract (from UniProt P09733 1-447) (natural protein)
